Experimental data taken from the Human Domainome abundance scans (Beltran et al. 2025).
± gives the uncertainty stated by the source.

B1: POU domain, class 2, transcription factor 2, residues 200 to 269; numbered along this chain, P09086 (parent)
chain: LEELEQFARTFKQRRIKLGFTQGDVGLAMGKLYGNDFSQTTISRFEALNLSFKNMCKLKPLLEKWLNDAE
B2: Peroxisome proliferator-activated receptor delta, residues 71 to 145; numbered along this chain, Q03181 (parent)
chain: NMECRVCGDKASGFHYGVHACEGCKGFFRRTIRMKLEYEKCERSCKIQKKNRNKCQYCRFQKCLALGMSHNAIRF

Variants of: B1
Assay: abundance fitness (aPCA) (normalised: wild type 0, dead -1); higher = more abundant; growth selection in yeast, the domain comes from the species named
Conditions: Homo sapiens

Abundance fitness, by site and new letter:
K57: V -0.088 ± 0.042, Q -0.023 ± 0.061, N -0.125 ± 0.091, E -0.05 ± 0.062, I -0.153 ± 0.085, P -0.44 ± 0.064, D -0.47 ± 0.17, C -0.058 ± 0.048, A -0.057 ± 0.042, Y -0.089 ± 0.11, T 0.024 ± 0.041, W -0.068 ± 0.048, G 0.002 ± 0.031, S -0.067 ± 0.049, M 0.01 ± 0.049, L -0.08 ± 0.041, R -0.064 ± 0.031
E70: S 0.071 ± 0.084, A -0.047 ± 0.07, Q -0.07 ± 0.072, W -0.073 ± 0.065, Y -0.195 ± 0.11, P -0.253 ± 0.22, T -0.086 ± 0.089, H -0.341 ± 0.15, V -0.035 ± 0.042, K -0.128 ± 0.085, R -0.164 ± 0.052, M -0.072 ± 0.11, C -0.092 ± 0.12, G -0.072 ± 0.069, D 0.054 ± 0.054, N -0.066 ± 0.16, F -0.2 ± 0.19
L61: M -0.031 ± 0.044, D -0.006 ± 0.14, C 0.026 ± 0.048, S -0.038 ± 0.04, I -0.141 ± 0.1, P -0.027 ± 0.032, K 0.032 ± 0.056, Y -0.082 ± 0.15, F 0.05 ± 0.096, A -0.043 ± 0.041, G -0.093 ± 0.032, T 0.008 ± 0.04, Q 0.013 ± 0.042, H -0.064 ± 0.079, V -0.064 ± 0.032, R -0.038 ± 0.031
C56: D -0.052 ± 0.057, R 0.014 ± 0.029, I -0.09 ± 0.062, Y -0.196 ± 0.068, E 0.002 ± 0.045, K 0.015 ± 0.055, N -0.064 ± 0.083, T 0.053 ± 0.042, A -0.022 ± 0.033, S -0.029 ± 0.042, Q 0.062 ± 0.067, H -0.082 ± 0.092, W -0.046 ± 0.04, V -0.029 ± 0.038, L 0.007 ± 0.03, F -0.034 ± 0.052, G -0.055 ± 0.029
K64: E -0.016 ± 0.064, L -0.049 ± 0.046, N -0.232 ± 0.11, I -0.158 ± 0.14, M -0.096 ± 0.069, V -0.048 ± 0.054, Y -0.24 ± 0.073, C -0.117 ± 0.095, P -0.343 ± 0.067, H 0.041 ± 0.11, R -0.054 ± 0.037, Q 0.008 ± 0.052, W -0.257 ± 0.072, D 0.003 ± 0.09, S -0.084 ± 0.073, A 0.081 ± 0.084
K53: L -0.015 ± 0.042, S 0.005 ± 0.043, D -0.048 ± 0.075, Y -0.092 ± 0.14, P -0.055 ± 0.055, H 0.016 ± 0.071, N -0.236 ± 0.12, G 0.002 ± 0.034, C -0.098 ± 0.069, W -0.079 ± 0.058, M -0.055 ± 0.054, R -0.022 ± 0.039, T 0.064 ± 0.059, I -0.073 ± 0.12, E 0.003 ± 0.05, A 0.004 ± 0.047, F -0.044 ± 0.054, V -0.014 ± 0.035, Q 0.028 ± 0.045
M55: C -0.439 ± 0.13, H -0.164 ± 0.075, T -0.213 ± 0.036, F -0.127 ± 0.06, L -0.021 ± 0.027, V -0.142 ± 0.033, G -0.097 ± 0.029, R -0.502 ± 0.028, A -0.022 ± 0.023, I -0.175 ± 0.061, D -0.435 ± 0.078, Y -0.135 ± 0.071, E -0.512 ± 0.049, N -0.463 ± 0.078, W -0.24 ± 0.037
W65: M -0.309 ± 0.12, P -0.433 ± 0.15, K -0.716 ± 0.16, E -0.923 ± 0.17, G -0.71 ± 0.088, S -0.522 ± 0.11, Q -0.843 ± 0.18, V -0.198 ± 0.065, T -0.362 ± 0.061, Y -0.128 ± 0.093, C -0.243 ± 0.06, A -0.469 ± 0.063, R -0.628 ± 0.066
S51: H -0.049 ± 0.075, F -0.832 ± 0.1, P 0.006 ± 0.034, N -0.037 ± 0.19, G -0.05 ± 0.034, L -0.785 ± 0.053, K -0.019 ± 0.052, V -0.507 ± 0.043, T 0.007 ± 0.04, I -0.684 ± 0.42, W -0.907 ± 0.091, M -0.317 ± 0.053, R -0.102 ± 0.035, Y -0.461 ± 0.082
P60: Y -0.378 ± 0.082, G -0.016 ± 0.044, Q -0.103 ± 0.059, S -0.069 ± 0.057, V -0.035 ± 0.036, L -0.156 ± 0.036, R -0.102 ± 0.035, I 0.098 ± 0.069, W -0.334 ± 0.065, K -0.295 ± 0.13, N -0.177 ± 0.1, M -0.207 ± 0.076, H -0.216 ± 0.14, C -0.177 ± 0.059, A -0.124 ± 0.044, E -0.109 ± 0.048, F -0.05 ± 0.079, T -0.06 ± 0.052, D -0.082 ± 0.077
N67: D -0.221 ± 0.22, Y -0.497 ± 0.38
L66: H -0.526 ± 0.36, V 0.007 ± 0.045, Y -0.047 ± 0.16, C 0.025 ± 0.084, T -0.355 ± 0.081, R -0.837 ± 0.079, E -0.409 ± 0.077, P -0.719 ± 0.3, S -0.238 ± 0.043, M -0.027 ± 0.057, F -0.27 ± 0.11, W -0.232 ± 0.058, A 0.001 ± 0.056, G -0.38 ± 0.046, Q -0.358 ± 0.076, D -0.358 ± 0.18, I 0.03 ± 0.11
D68: Y -0.076 ± 0.074, R -0.022 ± 0.029, W -0.147 ± 0.06, H -0.205 ± 0.14, F 0.085 ± 0.11, C -0.053 ± 0.066, I -0.22 ± 0.088, E -0.047 ± 0.052, K -0.015 ± 0.044, Q -0.063 ± 0.079, P -0.349 ± 0.03, V -0.054 ± 0.043
K59: H -0.098 ± 0.14, W -0.078 ± 0.054, L -0.069 ± 0.035, I 0.001 ± 0.13, T -0.167 ± 0.049, Q -0.094 ± 0.076, E -0.293 ± 0.047, V -0.031 ± 0.036, F -0.14 ± 0.094, R -0.078 ± 0.047, G -0.079 ± 0.038, C -0.14 ± 0.066, P -0.761 ± 0.12, N -0.435 ± 0.11, A -0.086 ± 0.054
N54: Y 0.09 ± 0.14, E 0.058 ± 0.088, R -0.005 ± 0.042, V 0.032 ± 0.055, W -0.081 ± 0.056, L -0.097 ± 0.048, Q 0.11 ± 0.15, K -0.017 ± 0.059, S 0.042 ± 0.043, F 0.018 ± 0.13, I -0.272 ± 0.12, A -0.046 ± 0.044, T 0.023 ± 0.09, H 0.091 ± 0.091, C -0.193 ± 0.09, G -0.017 ± 0.042, M 0.103 ± 0.067, D 0.101 ± 0.1, P -0.264 ± 0.059
L58: M -0.011 ± 0.067, F 0.005 ± 0.095, C -0.067 ± 0.063, W -0.007 ± 0.038, N -0.227 ± 0.11, Q -0.194 ± 0.08, V -0.005 ± 0.037, D -0.576 ± 0.074, Y -0.157 ± 0.06, A -0.002 ± 0.04, S -0.228 ± 0.054, H -0.221 ± 0.11, R -0.259 ± 0.03, E -0.478 ± 0.091, P -0.747 ± 0.12, G -0.619 ± 0.042, T -0.049 ± 0.061, I 0.057 ± 0.11, K -0.099 ± 0.06
F52: G -0.053 ± 0.039, N -0.069 ± 0.18, Q -0.087 ± 0.084, I -0.028 ± 0.063, M -0.105 ± 0.11, T 0.069 ± 0.061, K -0.031 ± 0.085, E -0.044 ± 0.071, V -0.035 ± 0.05, L -0.014 ± 0.046, P -0.115 ± 0.099, R 0.032 ± 0.036, W -0.024 ± 0.055, Y -0.096 ± 0.14, A -0.038 ± 0.046, H -0.2 ± 0.12, C -0.062 ± 0.061
A69: F -0.179 ± 0.085, P -0.15 ± 0.054, V -0.084 ± 0.057, S -0.046 ± 0.051, T 0.056 ± 0.069, R -0.007 ± 0.049, Y -0.107 ± 0.093, L -0.034 ± 0.062, N 0.128 ± 0.25, E 0.009 ± 0.069, G -0.126 ± 0.049, K -0.105 ± 0.063, I 0.012 ± 0.11, D -0.233 ± 0.088
L62: R -0.968 ± 0.11, A -0.166 ± 0.04, P -0.93 ± 0.27, Y -0.076 ± 0.17, D -0.999 ± 0.1, K -0.896 ± 0.15, V -0.043 ± 0.049, G -0.744 ± 0.064, S -0.804 ± 0.1, Q -0.843 ± 0.18, C -0.096 ± 0.1, M 0.025 ± 0.05, E -0.974 ± 0.13, T -0.501 ± 0.1, I 0.014 ± 0.096

Variants of: B2
Assay: as above
Conditions: Homo sapiens

Abundance fitness of substitutions, site by site:
N1: I 0.16 ± 0.078, A -0.179 ± 0.067, T -0.012 ± 0.067, H -0.155 ± 0.11, K -0.075 ± 0.073, P -0.475 ± 0.21, G -0.212 ± 0.049, V -0.141 ± 0.057, C -0.421 ± 0.11, E -0.07 ± 0.065, L -0.455 ± 0.084, W -0.593 ± 0.12, D -0.049 ± 0.066, Q -0.218 ± 0.12, Y -0.266 ± 0.15, R -0.296 ± 0.064
E3: L -0.106 ± 0.041, N -0.079 ± 0.068, H -0.027 ± 0.077, C -0.278 ± 0.076, D 0.059 ± 0.064, A -0.204 ± 0.047, K -0.089 ± 0.057, I -0.044 ± 0.081, F -0.086 ± 0.08
M2: V -0.155 ± 0.051, K -0.249 ± 0.082, D -0.056 ± 0.079, T -0.156 ± 0.052, Y -0.113 ± 0.1, W -0.527 ± 0.098, N -0.21 ± 0.09, L -0.315 ± 0.059, R -0.417 ± 0.048, S -0.305 ± 0.056, H -0.276 ± 0.12, E -0.227 ± 0.063, C -0.064 ± 0.08, P -0.58 ± 0.11, F -0.432 ± 0.39, A -0.526 ± 0.091
